Experimental data reported in the supplement of paper PMC10065799, “High-throughput profiling of sequence recognition by tyrosine kinases and SH2 domains using bacterial peptide display” (eLife, 2023).

Each sequence was assayed on c-Src (assay: phosphorylation enrichment, bacterial display (enrichment ratio); higher = better substrate or ligand; peptides without Tyr show the background).
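Further: 11-residue human phosphosite peptides and single-mutation variants displayed on the E. coli surface, counted by deep sequencing, each peptide's frequency after selection divided by its frequency in the unselected input library; frequency after pTyr selection over input frequency; kinase dosed for 20-30% of maximal phosphorylation in three min.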

In order of falling phosphorylation enrichment:
1. SSFDIYHLSRE [KIR3DL2_Y253_YF]  7.22
2. YAFQLYDLDPD [CHP2_Y123_R127P]  5
3. LNPLVYTLRNA [OR4C12_Y285_V283L]  3.54
4. RFLERYIYNPE [HLA-DPB1_Y57_R61P]  3.08
5. HICTAYELVLA [DHCR24_Y190]  2.77
6. ADARMYGDLPW [PLP1_Y207_V209D]  2.74
7. LYSDHYSPSGR [TMPRSS12_Y23]  2.15
8. RLQEDYDHSYY [ESD_Y258_G257D]  1.06
9. AAGGRYYGLVG [HARS1_Y363_D364Y]  0.867
10. LEHCQYVTEKV [ALDOB_Y204]  0.822
11. KKKKQYKDKYL [CASK_Y708]  0.728
12. LSDGPYSSPFE [EPOR_Y485_N487S_YF]  0.698
13. SVTCTYSSALN [TP53_Y126_P128S]  0.64
14. SIKDKYLTALY [KCNH2_Y611_V612L]  0.623
15. VDEVLYEDSST [MTHFS_Y197]  0.615
16. GQDLLYEDEDL [PACS1_Y303_F302L]  0.613
17. EFNLMYDGTKE [IRF6_Y97]  0.597
18. CTTFHYNFMCN [TP53_Y234_I232F_YF]  0.595
19. QRRFVYFFSFL [PTEN_Y176_YF]  0.567
20. DDLTDYLMKIL [ACTA1_Y190_R185D]  0.548
21. TVFENYVADIK [RHOA_Y42_E47K]  0.536
22. DLGIQYKVLKP [CTNNA1_Y177_A179V]  0.521
23. SQKRKYIEIDS [SDAD1_Y580]  0.507
24. HNELFYEEAEH [VANGL1_Y345_YF]  0.484
25. RPQDGFRIVQH [PTPRT_Y1329_Y1329F]  0.483
26. TLNVRHESVQA [CEACAM7_Y236_Y236H]  0.466
27. SSKILYHIIKG [CDH17_Y489]  0.453
28. VKKKLDEEIDQ [CYP17A1_Y329_Y329D]  0.441
29. IALSKYGRVKW [FGF6_Y186_R191W]  0.437
30. GKLIFYDLRGE [KARS1_Y145]  0.413
31. CNRADYSKLAP [GNE_Y22]  0.412
32. TTGLIYIGSHD [AASDH_Y870]  0.408
33. CTTIHSNYMCN [TP53_Y234_Y234S]  0.387

These sequences were tested against MERTK (UniProt Q12866) in the same assay as above.
Sequence of MERTK (Q12866 whole entry, looked up): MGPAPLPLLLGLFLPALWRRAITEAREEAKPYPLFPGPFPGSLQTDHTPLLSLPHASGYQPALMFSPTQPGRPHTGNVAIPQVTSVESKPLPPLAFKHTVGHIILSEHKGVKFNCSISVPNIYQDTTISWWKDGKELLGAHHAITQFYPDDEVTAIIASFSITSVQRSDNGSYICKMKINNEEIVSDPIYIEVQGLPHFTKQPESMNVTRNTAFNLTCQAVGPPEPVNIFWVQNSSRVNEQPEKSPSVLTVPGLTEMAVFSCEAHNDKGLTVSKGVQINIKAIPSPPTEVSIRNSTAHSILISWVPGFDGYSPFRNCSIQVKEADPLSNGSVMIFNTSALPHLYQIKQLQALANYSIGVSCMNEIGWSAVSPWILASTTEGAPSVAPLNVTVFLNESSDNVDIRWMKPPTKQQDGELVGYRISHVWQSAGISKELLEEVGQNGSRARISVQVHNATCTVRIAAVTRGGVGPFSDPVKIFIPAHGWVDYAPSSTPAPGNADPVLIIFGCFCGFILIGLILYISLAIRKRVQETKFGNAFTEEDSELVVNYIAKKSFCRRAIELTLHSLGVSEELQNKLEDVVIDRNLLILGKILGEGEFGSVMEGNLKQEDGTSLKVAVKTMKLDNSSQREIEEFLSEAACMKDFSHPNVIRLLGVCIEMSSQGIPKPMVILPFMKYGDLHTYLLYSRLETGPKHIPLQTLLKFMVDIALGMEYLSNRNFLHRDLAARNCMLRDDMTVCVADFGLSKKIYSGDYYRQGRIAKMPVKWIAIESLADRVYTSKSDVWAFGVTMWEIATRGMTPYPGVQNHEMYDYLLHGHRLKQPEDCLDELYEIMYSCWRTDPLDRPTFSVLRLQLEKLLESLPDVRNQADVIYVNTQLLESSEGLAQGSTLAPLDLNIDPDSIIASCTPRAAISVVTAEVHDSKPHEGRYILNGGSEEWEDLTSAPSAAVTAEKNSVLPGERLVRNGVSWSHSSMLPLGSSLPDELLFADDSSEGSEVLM

In order of falling phosphorylation enrichment:
1. LYSDHYSPSGR [TMPRSS12_Y23]  28.8
2. AAGGRYYGLVG [HARS1_Y363_D364Y]  3.95
3. SSFDIYHLSRE [KIR3DL2_Y253_YF]  2.6
4. YAFQLYDLDPD [CHP2_Y123_R127P]  2.01
5. HICTAYELVLA [DHCR24_Y190]  1.56
6. RFLERYIYNPE [HLA-DPB1_Y57_R61P]  1.5
7. LNPLVYTLRNA [OR4C12_Y285_V283L]  1.21
8. SSKILYHIIKG [CDH17_Y489]  1.12
9. LEHCQYVTEKV [ALDOB_Y204]  1.04
10. RLQEDYDHSYY [ESD_Y258_G257D]  0.754
11. KKKKQYKDKYL [CASK_Y708]  0.631
12. QRRFVYFFSFL [PTEN_Y176_YF]  0.618
13. CNRADYSKLAP [GNE_Y22]  0.609
14. GQDLLYEDEDL [PACS1_Y303_F302L]  0.595
15. SQKRKYIEIDS [SDAD1_Y580]  0.571
16. DDLTDYLMKIL [ACTA1_Y190_R185D]  0.529
17. LSDGPYSSPFE [EPOR_Y485_N487S_YF]  0.527
18. HNELFYEEAEH [VANGL1_Y345_YF]  0.525
19. VKKKLDEEIDQ [CYP17A1_Y329_Y329D]  0.523
20. ADARMYGDLPW [PLP1_Y207_V209D]  0.52
21. RPQDGFRIVQH [PTPRT_Y1329_Y1329F]  0.52
22. VDEVLYEDSST [MTHFS_Y197]  0.492
23. CTTIHSNYMCN [TP53_Y234_Y234S]  0.479
24. SVTCTYSSALN [TP53_Y126_P128S]  0.458
25. EFNLMYDGTKE [IRF6_Y97]  0.446
26. TVFENYVADIK [RHOA_Y42_E47K]  0.442
27. SIKDKYLTALY [KCNH2_Y611_V612L]  0.439
28. GKLIFYDLRGE [KARS1_Y145]  0.436
29. DLGIQYKVLKP [CTNNA1_Y177_A179V]  0.413
30. CTTFHYNFMCN [TP53_Y234_I232F_YF]  0.4
31. IALSKYGRVKW [FGF6_Y186_R191W]  0.365
32. TLNVRHESVQA [CEACAM7_Y236_Y236H]  0.348
33. TTGLIYIGSHD [AASDH_Y870]  0.323

These sequences were tested against Fes (UniProt P07332) in the same assay as above.
Sequence of Fes (P07332 whole entry, looked up): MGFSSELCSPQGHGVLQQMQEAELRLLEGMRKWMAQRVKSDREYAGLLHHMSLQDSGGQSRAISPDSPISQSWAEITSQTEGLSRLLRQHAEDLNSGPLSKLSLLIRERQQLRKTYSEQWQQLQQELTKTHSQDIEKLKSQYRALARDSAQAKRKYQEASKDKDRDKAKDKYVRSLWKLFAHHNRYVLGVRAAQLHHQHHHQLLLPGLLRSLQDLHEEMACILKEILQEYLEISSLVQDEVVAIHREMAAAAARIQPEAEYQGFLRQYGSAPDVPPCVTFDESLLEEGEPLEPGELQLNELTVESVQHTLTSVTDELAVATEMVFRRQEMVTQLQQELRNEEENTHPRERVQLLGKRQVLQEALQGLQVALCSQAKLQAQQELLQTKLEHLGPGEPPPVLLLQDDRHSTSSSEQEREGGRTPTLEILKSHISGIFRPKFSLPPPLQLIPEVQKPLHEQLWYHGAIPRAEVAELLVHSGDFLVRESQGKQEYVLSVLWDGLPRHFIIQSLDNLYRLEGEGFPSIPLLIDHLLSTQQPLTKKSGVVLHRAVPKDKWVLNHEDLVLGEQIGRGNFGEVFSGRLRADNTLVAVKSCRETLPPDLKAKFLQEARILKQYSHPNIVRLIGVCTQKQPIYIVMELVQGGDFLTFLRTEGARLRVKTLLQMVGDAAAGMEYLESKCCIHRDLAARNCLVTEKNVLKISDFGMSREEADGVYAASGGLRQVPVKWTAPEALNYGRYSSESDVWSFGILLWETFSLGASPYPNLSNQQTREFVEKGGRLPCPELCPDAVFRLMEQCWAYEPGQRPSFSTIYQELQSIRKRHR

In order of falling phosphorylation enrichment:
1. LEHCQYVTEKV [ALDOB_Y204]  2.85
2. HICTAYELVLA [DHCR24_Y190]  1.74
3. RLQEDYDHSYY [ESD_Y258_G257D]  1.55
4. LNPLVYTLRNA [OR4C12_Y285_V283L]  1.51
5. QRRFVYFFSFL [PTEN_Y176_YF]  1.46
6. GQDLLYEDEDL [PACS1_Y303_F302L]  1.43
7. YAFQLYDLDPD [CHP2_Y123_R127P]  1.37
8. HNELFYEEAEH [VANGL1_Y345_YF]  1.35
9. VDEVLYEDSST [MTHFS_Y197]  1.34
10. DLGIQYKVLKP [CTNNA1_Y177_A179V]  1.28
11. RFLERYIYNPE [HLA-DPB1_Y57_R61P]  1.15
12. EFNLMYDGTKE [IRF6_Y97]  1.14
13. DDLTDYLMKIL [ACTA1_Y190_R185D]  1.1
14. CTTFHYNFMCN [TP53_Y234_I232F_YF]  1.1
15. LYSDHYSPSGR [TMPRSS12_Y23]  1.03
16. SSFDIYHLSRE [KIR3DL2_Y253_YF]  1.02
17. SVTCTYSSALN [TP53_Y126_P128S]  1
18. IALSKYGRVKW [FGF6_Y186_R191W]  0.985
19. GKLIFYDLRGE [KARS1_Y145]  0.984
20. CTTIHSNYMCN [TP53_Y234_Y234S]  0.915
21. TVFENYVADIK [RHOA_Y42_E47K]  0.878
22. CNRADYSKLAP [GNE_Y22]  0.844
23. LSDGPYSSPFE [EPOR_Y485_N487S_YF]  0.84
24. RPQDGFRIVQH [PTPRT_Y1329_Y1329F]  0.838
25. SSKILYHIIKG [CDH17_Y489]  0.798
26. ADARMYGDLPW [PLP1_Y207_V209D]  0.794
27. VKKKLDEEIDQ [CYP17A1_Y329_Y329D]  0.792
28. TTGLIYIGSHD [AASDH_Y870]  0.759
29. SIKDKYLTALY [KCNH2_Y611_V612L]  0.707
30. SQKRKYIEIDS [SDAD1_Y580]  0.614
31. AAGGRYYGLVG [HARS1_Y363_D364Y]  0.601
32. TLNVRHESVQA [CEACAM7_Y236_Y236H]  0.59
33. KKKKQYKDKYL [CASK_Y708]  0.534

The sequences below were run against Hck (UniProt P08631) in the same assay as above.
Sequence of Hck (P08631 whole entry, looked up): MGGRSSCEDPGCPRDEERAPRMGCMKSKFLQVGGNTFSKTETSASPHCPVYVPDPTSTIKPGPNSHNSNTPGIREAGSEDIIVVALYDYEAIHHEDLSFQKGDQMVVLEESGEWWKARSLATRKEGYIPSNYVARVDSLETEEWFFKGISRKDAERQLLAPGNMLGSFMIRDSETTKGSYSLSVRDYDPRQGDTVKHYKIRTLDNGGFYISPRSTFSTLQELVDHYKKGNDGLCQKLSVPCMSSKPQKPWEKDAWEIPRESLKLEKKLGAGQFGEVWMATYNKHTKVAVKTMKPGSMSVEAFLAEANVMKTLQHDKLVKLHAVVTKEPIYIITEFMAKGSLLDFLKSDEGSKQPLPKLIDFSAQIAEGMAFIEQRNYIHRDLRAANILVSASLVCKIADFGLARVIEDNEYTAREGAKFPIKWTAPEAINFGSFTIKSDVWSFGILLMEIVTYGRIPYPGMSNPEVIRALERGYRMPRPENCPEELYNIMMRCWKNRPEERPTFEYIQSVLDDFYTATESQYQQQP

In order of rising phosphorylation enrichment:
1. TLNVRHESVQA [CEACAM7_Y236_Y236H]  0.366
2. IALSKYGRVKW [FGF6_Y186_R191W]  0.438
3. CTTIHSNYMCN [TP53_Y234_Y234S]  0.448
4. CNRADYSKLAP [GNE_Y22]  0.459
5. TTGLIYIGSHD [AASDH_Y870]  0.46
6. SQKRKYIEIDS [SDAD1_Y580]  0.475
7. CTTFHYNFMCN [TP53_Y234_I232F_YF]  0.479
8. VKKKLDEEIDQ [CYP17A1_Y329_Y329D]  0.488
9. DDLTDYLMKIL [ACTA1_Y190_R185D]  0.519
10. GKLIFYDLRGE [KARS1_Y145]  0.531
11. RPQDGFRIVQH [PTPRT_Y1329_Y1329F]  0.532
12. TVFENYVADIK [RHOA_Y42_E47K]  0.534
13. KKKKQYKDKYL [CASK_Y708]  0.548
14. DLGIQYKVLKP [CTNNA1_Y177_A179V]  0.548
15. QRRFVYFFSFL [PTEN_Y176_YF]  0.57
16. EFNLMYDGTKE [IRF6_Y97]  0.595
17. GQDLLYEDEDL [PACS1_Y303_F302L]  0.626
18. VDEVLYEDSST [MTHFS_Y197]  0.646
19. SIKDKYLTALY [KCNH2_Y611_V612L]  0.651
20. SSKILYHIIKG [CDH17_Y489]  0.655
21. LSDGPYSSPFE [EPOR_Y485_N487S_YF]  0.684
22. SVTCTYSSALN [TP53_Y126_P128S]  0.689
23. AAGGRYYGLVG [HARS1_Y363_D364Y]  0.715
24. HICTAYELVLA [DHCR24_Y190]  0.779
25. RLQEDYDHSYY [ESD_Y258_G257D]  0.781
26. LEHCQYVTEKV [ALDOB_Y204]  0.839
27. HNELFYEEAEH [VANGL1_Y345_YF]  0.974
28. LNPLVYTLRNA [OR4C12_Y285_V283L]  1.81
29. LYSDHYSPSGR [TMPRSS12_Y23]  2.01
30. RFLERYIYNPE [HLA-DPB1_Y57_R61P]  2.11
31. YAFQLYDLDPD [CHP2_Y123_R127P]  2.56
32. ADARMYGDLPW [PLP1_Y207_V209D]  3.49
33. SSFDIYHLSRE [KIR3DL2_Y253_YF]  9.84
